Results from patent US20180326084A1 (Genmab, published 2018).

Tests used:
[1] = target: T1, human AXL (full length) (human, UniProt P30530 26-894); experiment: flow cytometry, A431 cells, no Gas6
T1 construct: also called TH1021-AXL; TH1021-hAXL

[2] = target: T2, AXLECDHis (human, UniProt P30530 26-447); experiment: BLI (Octet), IgG on anti-human Fc sensor, AXLECDHis analyte
T2 construct: theoretical mass 46 kDa used; also called extracellular domain (ECD) of human AXL (aa 1-447) with a C-terminal His tag; soluble recombinant AXL extracellular domain

[3] = target: T3, Homo sapiens AXL-Mus musculus FN1 domain (p33-AXL-mFN1) (human-mouse chimera, UniProt P30530 26-894); experiment: flow cytometry, 1 µg/mL antibody, transfected HEK293F cells
T3 construct: Expressed in HEK293F cells; also called hsAXL-mmFN1; TH1021-mFN1
T3 chain: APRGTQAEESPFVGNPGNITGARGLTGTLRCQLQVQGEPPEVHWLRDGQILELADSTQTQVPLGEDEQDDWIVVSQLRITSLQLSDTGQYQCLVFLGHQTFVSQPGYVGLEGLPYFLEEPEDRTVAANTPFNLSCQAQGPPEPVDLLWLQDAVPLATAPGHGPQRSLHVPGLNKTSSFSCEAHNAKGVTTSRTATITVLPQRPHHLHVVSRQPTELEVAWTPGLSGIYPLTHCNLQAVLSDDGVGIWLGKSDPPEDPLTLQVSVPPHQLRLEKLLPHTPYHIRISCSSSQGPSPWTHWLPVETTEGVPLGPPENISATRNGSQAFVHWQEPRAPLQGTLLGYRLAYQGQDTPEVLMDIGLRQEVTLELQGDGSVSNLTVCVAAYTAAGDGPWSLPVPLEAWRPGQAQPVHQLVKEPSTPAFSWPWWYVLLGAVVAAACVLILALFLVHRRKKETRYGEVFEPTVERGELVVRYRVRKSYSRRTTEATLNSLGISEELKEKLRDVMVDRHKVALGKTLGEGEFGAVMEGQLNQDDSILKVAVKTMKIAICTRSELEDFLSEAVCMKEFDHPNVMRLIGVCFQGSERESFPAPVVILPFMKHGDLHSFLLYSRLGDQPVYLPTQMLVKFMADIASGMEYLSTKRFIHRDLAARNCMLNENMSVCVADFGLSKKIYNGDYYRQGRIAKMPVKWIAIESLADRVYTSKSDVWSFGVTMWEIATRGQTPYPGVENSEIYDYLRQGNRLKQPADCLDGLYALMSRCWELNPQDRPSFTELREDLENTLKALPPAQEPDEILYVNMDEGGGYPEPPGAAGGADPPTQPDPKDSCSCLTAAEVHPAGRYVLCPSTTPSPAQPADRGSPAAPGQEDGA

[4] = target: T1, human AXL (full length); experiment: FMAT screening assay, HEK-293F cells transiently expressing human AXL
[5] = target: T1, human AXL (full length); experiment: flow cytometry, A431 cells pre-incubated with 10 µg/mL Gas6 (competitor)
[6] = target: T4, Homo sapiens AXL-Mus musculus Ig2 domain (p33-AXL-mIg2) (human-mouse chimera, UniProt P30530 26-894); experiment: flow cytometry, 1 µg/mL antibody, transfected HEK293F cells
T4 construct: Expressed in HEK293F cells; also called hsAXL-mmIg2; TH1021-mIg2
T4 chain: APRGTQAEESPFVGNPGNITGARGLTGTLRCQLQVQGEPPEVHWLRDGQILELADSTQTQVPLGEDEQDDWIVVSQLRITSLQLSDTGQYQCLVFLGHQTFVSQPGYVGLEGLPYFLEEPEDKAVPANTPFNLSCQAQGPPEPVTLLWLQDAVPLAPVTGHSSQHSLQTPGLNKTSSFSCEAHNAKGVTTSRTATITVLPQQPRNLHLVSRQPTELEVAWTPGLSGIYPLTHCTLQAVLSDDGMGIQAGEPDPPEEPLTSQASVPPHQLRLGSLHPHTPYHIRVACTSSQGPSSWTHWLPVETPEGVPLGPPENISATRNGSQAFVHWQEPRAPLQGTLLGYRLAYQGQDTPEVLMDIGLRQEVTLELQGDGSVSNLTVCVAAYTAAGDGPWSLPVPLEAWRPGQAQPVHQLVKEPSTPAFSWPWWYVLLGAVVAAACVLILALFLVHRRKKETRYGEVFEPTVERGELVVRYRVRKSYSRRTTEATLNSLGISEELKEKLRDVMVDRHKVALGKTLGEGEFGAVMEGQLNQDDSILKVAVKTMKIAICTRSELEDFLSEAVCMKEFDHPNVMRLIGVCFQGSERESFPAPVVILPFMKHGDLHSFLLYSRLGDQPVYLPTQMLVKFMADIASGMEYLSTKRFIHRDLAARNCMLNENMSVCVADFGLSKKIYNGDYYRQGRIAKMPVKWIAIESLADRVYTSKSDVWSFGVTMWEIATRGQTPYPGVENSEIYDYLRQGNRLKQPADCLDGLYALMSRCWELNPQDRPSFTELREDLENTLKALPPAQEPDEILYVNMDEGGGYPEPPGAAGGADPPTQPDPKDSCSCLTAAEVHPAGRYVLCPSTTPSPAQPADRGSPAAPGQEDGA

[7] = target: T1, human AXL (full length); experiment: flow cytometry, HEK293T cells transiently transfected with human AXL

B1: IgG1-AXL-148 (antibody, V domains shown)
VH: EVQLLESGGGLVQPGGSLRLSCAASGFTFSSYAMTWVRQAPGKGLEWVSAISISGGSTFYADSVKGRFTISRDNSKNTLYLQMNSLRAEDTAVYYCRGYSGYVYDAFDFWGQGTMVTVSS
VL: DIQMTQSPSSLSASVGDRVTITCRASQGISNWLAWYQQKPEKAPKSLIYAASSLQSGVPSRFSGSGSGTDFTLTISSLQPEDFATYYCQQYNSYPLTFGGGTKVEIK
- EC50 [1]: 0.11 µg/mL
- Kd [2]: 20 nM
- koff [2]: 0.0044 s⁻¹
- kon [2]: 230000 M⁻¹ s⁻¹
- binding result [3]: binds
- EC50 [4]: 0.0036 µg/mL
- Maximal binding (Arbitrary units) [4]: 3500 arbitrary units
- EC50 [5]: 0.2 µg/mL
- maximal binding in presence of Gas6 (% of binding in absence of Gas6) [5]: 93%

B2: IgG1-AXL-183 (antibody, V domains shown)
VH: QVQLQQWGAGLLKPSETLSLTCAVYGGSFSGYYWSWIRQPPGKGLEWIGEINQSGSTNYNPSLKSRVTISVDTSKNQFSLKLSSVTAADTSVYYCASGNWDHFFDYWGQGTLVTVSS
VL: DIQMTQSPSSVSASVGDRVTITCRASQGISSWLAWYQHKPGKAPKLLIYATSSLQSGVTSRFSGSGSGTDFTLTISSLQPEDFATYYCQQAKSFPWTFGQGTKVEIK
- EC50 [1]: 0.69 µg/mL
- Kd [2]: 10.2 nM
- koff [2]: 0.00042 s⁻¹
- kon [2]: 41000 M⁻¹ s⁻¹
- binding result [6]: binds
- binding result [3]: binds
- EC50 [5]: 1.19 µg/mL
- maximal binding in presence of Gas6 (% of binding in absence of Gas6) [5]: 90%
- EC50 (read off the curve) [7]: ~0.1 µg/mL

B3: IgG1-AXL-726 (antibody, V domains shown)
VH: QVQLQQWGAGLLKPSETLSLTCAIDGGSFSGYYWSWIRQPPGKGLEWIGEISHSGRTNYNPSLKSRVTISIDTSKNQFSLKLSSVAAADTAVYYCARFITMIRGAIITHFDYWGQGALVTVSS
VL: DIQMTQSPSSLSASVGDRVTITCRASQGISSWLAWYQQKPEKAPKSLIYAASSLQSGVPSRFSGSGSGTDFTLTISSLQPEDFATYYCQQYHSYPYTFGQGTKLEIK
- EC50 [1]: 0.32 µg/mL
- Kd [2]: 0.6 nM
- koff [2]: 0.00013 s⁻¹
- kon [2]: 240000 M⁻¹ s⁻¹
- binding result [6]: binds
- binding result [3]: binds
- EC50 [4]: 0.0471 µg/mL
- Maximal binding (Arbitrary units) [4]: 3150 arbitrary units
- EC50 [5]: 0.55 µg/mL
- maximal binding in presence of Gas6 (% of binding in absence of Gas6) [5]: 97%
- EC50 (read off the curve) [7]: ~0.09 µg/mL

B4: IgG1-AXL-733 (antibody, V domains shown)
VH: QVQLVESGGGVVQPGRSLRLSCAASGFSFSTYAMHWVRQAPGKGLEWVAVISYDGDNKYSADSVKGRFTISRDNSKNTLYLQMNSLRAEDTAVYYCARGRKLGIDAFDIWGQGTMVTVSS
VL: AIQLTQSPSSLSASVGDRVTITCRASQGISSALAWYQQKPGKAPKLLIYDASSLESGVPSRFSGSGSGTDFTLTISGLQPEDFATYYCQQFNSYPFTFGPGTKVDIK
- EC50 [1]: 0.49 µg/mL
- Kd [2]: 63 nM
- koff [2]: 0.0097 s⁻¹
- kon [2]: 160000 M⁻¹ s⁻¹
- binding result [6]: binds
- EC50 [5]: 0.62 µg/mL
- maximal binding in presence of Gas6 (% of binding in absence of Gas6) [5]: 93%
